Assay results from patent publication US20260263521A1, “ANTI-CD200R1 ANTIBODY AND USE THEREOF” (AIMED BIO INC., priority 2023, published 2026).

Key:
[1] = biological target: human CD200R1 expressed on cells (Jurkat-CD200R1, U937-CD200R1, HH cells) (human) (UniProt Q8TD46); experiment: cell-based or functional assay
[2] = biological target: human CD200R1 expressed on cells (Jurkat-CD200R1, U937-CD200R1, HH cells) (human) (UniProt Q8TD46); experiment: flow cytometry, HH cells; drawn table
[3] = biological target: human CD200R1 expressed on cells (Jurkat-CD200R1, U937-CD200R1, HH cells) (human) (UniProt Q8TD46); experiment: flow cytometry, HH cells; drawn table, row EC50

Sequence of human CD200R1 expressed on cells (Jurkat-CD200R1, U937-CD200R1, HH cells) (human) (Q8TD46 25-348): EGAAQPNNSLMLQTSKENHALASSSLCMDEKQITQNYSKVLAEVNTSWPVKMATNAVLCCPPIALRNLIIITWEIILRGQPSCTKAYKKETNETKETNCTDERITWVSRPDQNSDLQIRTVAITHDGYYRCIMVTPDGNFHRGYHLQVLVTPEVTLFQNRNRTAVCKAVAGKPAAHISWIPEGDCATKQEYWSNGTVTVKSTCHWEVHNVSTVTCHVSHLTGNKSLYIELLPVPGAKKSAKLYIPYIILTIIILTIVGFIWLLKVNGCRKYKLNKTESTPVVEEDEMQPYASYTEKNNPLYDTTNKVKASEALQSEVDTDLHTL

LY3454738 (US 2020/0087395, I-4P, Eli Lilly) (antibody)
EC50 (nM), degree of signal transduction by the Dok2 protein [1]: > 10000 nM
IC50 (nM) of IL-6 inhibition, LPS-treated U937-CD200R1 cells [1]: 1.72 nM
IC50 (nM) of TNF-α inhibition, LPS-treated U937-CD200R1 cells [1]: 6.03 nM
IL-6 (pg/ml) at log [Ab] (M) -7, LPS-treated U937-CD200R1 cells [1]: 523 pg/ml
IL-6 (pg/ml) at log [Ab] (M) -8, LPS-treated U937-CD200R1 cells [1]: 1330 pg/ml
IL-6 (pg/ml) at log [Ab] (M) -9, LPS-treated U937-CD200R1 cells [1]: 2670 pg/ml
IL-6 (pg/ml) at log [Ab] (M) -10, LPS-treated U937-CD200R1 cells [1]: 3380 pg/ml
IL-6 (pg/ml) at log [Ab] (M) -11, LPS-treated U937-CD200R1 cells [1]: 3550 pg/ml
IL-6 (pg/ml) at log [Ab] (M) -12, LPS-treated U937-CD200R1 cells [1]: 4530 pg/ml
RLU (a.u.), phosphorylated Dok2 reporter, antibody dose 0.05 nM [1]: 9260 a.u.
RLU (a.u.), phosphorylated Dok2 reporter, antibody dose 0.10 nM [1]: 8400 a.u.
RLU (a.u.), phosphorylated Dok2 reporter, antibody dose 0.20 nM [1]: 8000 a.u.
RLU (a.u.), phosphorylated Dok2 reporter, antibody dose 0.39 nM [1]: 8960 a.u.
RLU (a.u.), phosphorylated Dok2 reporter, antibody dose 0.78 nM [1]: 8900 a.u.
RLU (a.u.), phosphorylated Dok2 reporter, antibody dose 1.56 nM [1]: 9100 a.u.
RLU (a.u.), phosphorylated Dok2 reporter, antibody dose 3.13 nM [1]: 9470 a.u.
RLU (a.u.), phosphorylated Dok2 reporter, antibody dose 6.25 nM [1]: 8930 a.u.
RLU (a.u.), phosphorylated Dok2 reporter, antibody dose 12.5 nM [1]: 13000 a.u.
RLU (a.u.), phosphorylated Dok2 reporter, antibody dose 25 nM [1]: 22700 a.u.
RLU (a.u.), phosphorylated Dok2 reporter, antibody dose 50 nM [1]: 25600 a.u.
TNF-α (pg/ml) at log [Ab] (M) -7, LPS-treated U937-CD200R1 cells [1]: 472 pg/ml
TNF-α (pg/ml) at log [Ab] (M) -8, LPS-treated U937-CD200R1 cells [1]: 1040 pg/ml
TNF-α (pg/ml) at log [Ab] (M) -9, LPS-treated U937-CD200R1 cells [1]: 1480 pg/ml
TNF-α (pg/ml) at log [Ab] (M) -10, LPS-treated U937-CD200R1 cells [1]: 3760 pg/ml
TNF-α (pg/ml) at log [Ab] (M) -11, LPS-treated U937-CD200R1 cells [1]: 4950 pg/ml
TNF-α (pg/ml) at log [Ab] (M) -12, LPS-treated U937-CD200R1 cells [1]: 5490 pg/ml

IgG1 (antibody)
Geo mean (%) at 0.05 nM [2]: 0.8%
Geo mean (%) at 0.19 nM [2]: 0.8%
Geo mean (%) at 0.78 nM [2]: 0.8%
Geo mean (%) at 3.125 nM [2]: 0.8%
Geo mean (%) at 12.5 nM [2]: 0.8%
Geo mean (%) at 50 nM [2]: 1%
Geo mean (%) at 200 nM [2]: 1.9%
Geo mean (%) at 800 nM [2]: 3.5%
EC50 [3]: 815 nM

hIgG4 kappa isotype control (Crownvivo, #C0004) (antibody)
IL-6 (pg/ml) at log [Ab] (M) -7, LPS-treated U937-CD200R1 cells [1]: 3510 pg/ml
TNF-α (pg/ml) at log [Ab] (M) -7, LPS-treated U937-CD200R1 cells [1]: 5090 pg/ml
